# Test results reported in doi:10.1101/2024.05.02.592261.
# Where “and” joins values, the source holds several entries; their conditions need not be identical. Equal values may be shown once.
# Target: His-EutM (UniProt P41791)
# Test: pull-down
# Sequence of UniProt P41791 (P41791 whole entry): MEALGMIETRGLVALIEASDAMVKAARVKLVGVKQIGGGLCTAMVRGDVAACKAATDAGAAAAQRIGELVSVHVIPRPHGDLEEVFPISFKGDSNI
row,Substance,molar ratio of His-EutM to dual-modified EutM in the purified hybrid scaffold
1,SnoopT-EutM-SpyT,3.3 :1 and 7.6 :1
2,SpyC-EutM-SnoopC,3.9 :1 and 8.8 :1
